Experimental data as given in PMC6183340 (2018).
Values belong to the binder of their own block, whether it stands above or below them.

Tests used:
[1] = molecular target: T1, WT1 (natural WT1 235 peptide, nWT1 235) peptide on HLA-A*24:02 (human); test: NFAT-GFP reporter; TCR-transduced 2D3 cells, T2-2402 and titrated nWT1 235 peptide; full-length, on cells
T1 peptide: CMTWNQMNL

[2] = molecular target: T2, WT1 (modified WT1 235 peptide, mWT1 235) peptide on HLA-A*24:02 (human); test: NFAT-GFP reporter; TCR-transduced 2D3 cells, T2-2402 and titrated mWT1 235 peptide; full-length, on cells
T2 peptide: CYTWNQMNL

EC50 of peptide [1]: 180 nM | EC50 of peptide [2]: 29.3 nM
B1: TM-H2-TCR (TCR)
alpha TRAV20*02 TRAJ52*01 CDR3: CAVRGGRAGGTSYGKLTF
beta TRBV9*01 TRBJ2-3*01 CDR3: CASSVFGSSTDTQYF

EC50 of peptide [2]: 1780 nM
B2: TM-L1-TCR (TCR)
alpha TRAV17*01 TRAJ43*01 CDR3: CATDPGYNNDMRF
beta TRBV20-1*01 TRBJ2-2*01 CDR3: CSARGQRELSGELFF

EC50 of peptide [2]: 976 nM
B3: FSK1-TCR (TCR)
alpha TRAV19*01 TRAJ26*01 CDR3: CALSAAYGQNFVF
beta TRBV6-5*01 TRBJ2-1*01 CDR3: CASSYGKGLYNEQFF
